Results on 1 substance are retold here after patent US8211422.

The target of this assay is GA733 antigen (37 kD protein expressed on colorectal carcinoma cells) (UniProt P16422). Kind of assay: cell-based or functional assay.
Sequence of UniProt P16422 (P16422 24-314): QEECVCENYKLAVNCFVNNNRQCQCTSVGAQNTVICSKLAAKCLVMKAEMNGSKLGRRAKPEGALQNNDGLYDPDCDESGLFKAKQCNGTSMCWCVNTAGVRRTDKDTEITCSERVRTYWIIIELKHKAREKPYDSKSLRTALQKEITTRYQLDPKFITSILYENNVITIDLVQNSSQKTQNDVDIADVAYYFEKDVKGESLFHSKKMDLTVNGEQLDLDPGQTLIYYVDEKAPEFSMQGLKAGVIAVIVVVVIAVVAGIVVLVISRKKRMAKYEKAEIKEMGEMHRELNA

The substance “chimeric receptor GA733-γ (scFv of MAb GA733 joined to the γ chain of the Fc receptor)” returned a % Specific Lysis of CY13, effector:target 3.3:1 of 10.3%; a % Specific Lysis of CY13, effector:target 10:1 of 22.2%; a % Specific Lysis of CY13, effector:target 30:1 of 38.7%; a % Specific Lysis of CY13, effector:target 90:1 of 52.2%. The same substance displayed a GM-CSF production by PBL (stimulator CY13) (pg/ml/5 × 10^5 PBL/24 hours) of 1280 and a GM-CSF production by PBL (stimulator GREM) (pg/ml/5 × 10^5 PBL/24 hours) of 2980.
